Measurements from patent US9957297B2, “Template-fixed peptidomimetics as inhibitors of FPR1” (POLYPHOR AG, priority 2011, dated 2018).
*1 amine or outer side, *2 acyl side, *3 side chain or, on linkers, in order; H or OH if unused. Bridges are numbered along the chain shown (N, C = ends). [ ]: non-standard residue; d: D form. Pro(trans-4-NH2) = O=C([C@@H]1C[C@@H](N[*:3])CN1[*:1])[*:2]; Phe(4-CF3) = N[C@@H](Cc1ccc(C(F)(F)F)cc1)C(=O)O; Trp(5-OH) = N[C@@H](Cc1c[nH]c2ccc(O)cc12)C(=O)O; Pro(4S-NH2) = N[C@@H]1CN[C@H](C(=O)O)C1; d(cisHyp) = O=C(O)[C@H]1C[C@@H](O)CN1; Hyp = O=C(O)[C@@H]1C[C@@H](O)CN1; Tic = O=C(O)[C@@H]1Cc2ccccc2CN1; Pip = O=C(O)[C@@H]1CCCCN1; hSer = N[C@@H](CCO)C(=O)O; Dab = NCC[C@H](N)C(=O)O; Dap = NC[C@H](N)C(=O)O

T1: Formyl-Peptide Receptor 1 (UniProt P21462 1-350, limits assumed)
T1 sequence (looked up): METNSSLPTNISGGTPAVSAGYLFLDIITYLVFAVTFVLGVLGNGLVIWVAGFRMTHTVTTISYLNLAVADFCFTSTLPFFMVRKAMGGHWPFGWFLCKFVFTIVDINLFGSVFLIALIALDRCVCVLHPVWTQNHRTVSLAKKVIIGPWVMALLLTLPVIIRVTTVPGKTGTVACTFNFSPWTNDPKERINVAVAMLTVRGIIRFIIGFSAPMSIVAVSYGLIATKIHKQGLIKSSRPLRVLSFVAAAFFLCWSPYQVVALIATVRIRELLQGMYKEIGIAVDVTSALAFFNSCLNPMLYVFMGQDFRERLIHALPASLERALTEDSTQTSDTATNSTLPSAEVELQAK

B1: cyclo(-Tyr-His-Lys-Cys-His-Gly-^DPro-Trp-Thr-Ile-Cys-Tyr-Hse-Lys-^DPro-Pro-) (peptide)
peptide: cyclo(YHKCHG[dP]WTICY[hSer]K[dP]P)
modifications: disulfide 4-11
SMILES: CC[C@H](C)[C@@H]1NC(=O)[C@H]([C@@H](C)O)NC(=O)[C@H](Cc2c[nH]c3ccccc23)NC(=O)[C@H]2CCCN2C(=O)CNC(=O)[C@H](Cc2c[nH]cn2)NC(=O)[C@@H]2CSSC[C@H](NC1=O)C(=O)N[C@@H](Cc1ccc(O)cc1)C(=O)N[C@@H](CCO)C(=O)N[C@@H](CCCCN)C(=O)N1CCC[C@@H]1C(=O)N1CCC[C@H]1C(=O)N[C@@H](Cc1ccc(O)cc1)C(=O)N[C@@H](Cc1c[nH]cn1)C(=O)N[C@@H](CCCCN)C(=O)N2
B2: cyclo(-Tyr-His-Lys-Cys-His-Gly-^DPro-Trp-Thr-Ile-Cys-Tyr-Glu-Lys-^DPro-Pro((4R)NH2)-) (peptide)
peptide: cyclo(YHKCHG[dP]WTICYEK[dP][Pro(trans-4-NH2)])
modifications: disulfide 4-11
SMILES: CC[C@H](C)[C@@H]1NC(=O)[C@H]([C@@H](C)O)NC(=O)[C@H](Cc2c[nH]c3ccccc23)NC(=O)[C@H]2CCCN2C(=O)CNC(=O)[C@H](Cc2c[nH]cn2)NC(=O)[C@@H]2CSSC[C@H](NC1=O)C(=O)N[C@@H](Cc1ccc(O)cc1)C(=O)N[C@@H](CCC(=O)O)C(=O)N[C@@H](CCCCN)C(=O)N1CCC[C@@H]1C(=O)N1C[C@H](N)C[C@H]1C(=O)N[C@@H](Cc1ccc(O)cc1)C(=O)N[C@@H](Cc1c[nH]cn1)C(=O)N[C@@H](CCCCN)C(=O)N2
B3: cyclo(-Tyr-His-Lys-Cys-His-Gly-^DPro-Phe(4CF3)-Thr-Ile-Cys-Tyr-Glu-Lys-^DPro-Pro-) (peptide)
peptide: cyclo(YHKCHG[dP][Phe(4-CF3)]TICYEK[dP]P)
modifications: disulfide 4-11
SMILES: CC[C@H](C)[C@@H]1NC(=O)[C@H]([C@@H](C)O)NC(=O)[C@H](Cc2ccc(C(F)(F)F)cc2)NC(=O)[C@H]2CCCN2C(=O)CNC(=O)[C@H](Cc2c[nH]cn2)NC(=O)[C@@H]2CSSC[C@H](NC1=O)C(=O)N[C@@H](Cc1ccc(O)cc1)C(=O)N[C@@H](CCC(=O)O)C(=O)N[C@@H](CCCCN)C(=O)N1CCC[C@@H]1C(=O)N1CCC[C@H]1C(=O)N[C@@H](Cc1ccc(O)cc1)C(=O)N[C@@H](Cc1c[nH]cn1)C(=O)N[C@@H](CCCCN)C(=O)N2
B4: cyclo(-Tyr-His-Lys-Cys-His-Gly-^DPro-Trp-Thr-Ile-Cys-Tyr-Glu-Lys-^DPro-Lys-) (peptide)
peptide: cyclo(YHKCHG[dP]WTICYEK[dP]K)
modifications: disulfide 4-11
SMILES: CC[C@H](C)[C@@H]1NC(=O)[C@H]([C@@H](C)O)NC(=O)[C@H](Cc2c[nH]c3ccccc23)NC(=O)[C@H]2CCCN2C(=O)CNC(=O)[C@H](Cc2c[nH]cn2)NC(=O)[C@@H]2CSSC[C@H](NC1=O)C(=O)N[C@@H](Cc1ccc(O)cc1)C(=O)N[C@@H](CCC(=O)O)C(=O)N[C@@H](CCCCN)C(=O)N1CCC[C@@H]1C(=O)N[C@@H](CCCCN)C(=O)N[C@@H](Cc1ccc(O)cc1)C(=O)N[C@@H](Cc1c[nH]cn1)C(=O)N[C@@H](CCCCN)C(=O)N2
B5: cyclo(-Tyr-His-Lys-Cys-His-Gly-^DPro-Trp-Thr-Ile-Cys-Tyr-Glu-Lys-^DPro-Dab-) (peptide)
peptide: cyclo(YHKCHG[dP]WTICYEK[dP][Dab])
modifications: disulfide 4-11
SMILES: CC[C@H](C)[C@@H]1NC(=O)[C@H]([C@@H](C)O)NC(=O)[C@H](Cc2c[nH]c3ccccc23)NC(=O)[C@H]2CCCN2C(=O)CNC(=O)[C@H](Cc2c[nH]cn2)NC(=O)[C@@H]2CSSC[C@H](NC1=O)C(=O)N[C@@H](Cc1ccc(O)cc1)C(=O)N[C@@H](CCC(=O)O)C(=O)N[C@@H](CCCCN)C(=O)N1CCC[C@@H]1C(=O)N[C@@H](CCN)C(=O)N[C@@H](Cc1ccc(O)cc1)C(=O)N[C@@H](Cc1c[nH]cn1)C(=O)N[C@@H](CCCCN)C(=O)N2
B6: cyclo(-Tyr-His-Ala-Cys-Trp-Gly-^DPro-Trp-Thr-Ile-Cys-Tyr-Gln-Lys-^DPro-Ala-) (peptide)
peptide: cyclo(YHACWG[dP]WTICYQK[dP]A)
modifications: disulfide 4-11
SMILES: CC[C@H](C)[C@@H]1NC(=O)[C@H]([C@@H](C)O)NC(=O)[C@H](Cc2c[nH]c3ccccc23)NC(=O)[C@H]2CCCN2C(=O)CNC(=O)[C@H](Cc2c[nH]c3ccccc23)NC(=O)[C@@H]2CSSC[C@H](NC1=O)C(=O)N[C@@H](Cc1ccc(O)cc1)C(=O)N[C@@H](CCC(N)=O)C(=O)N[C@@H](CCCCN)C(=O)N1CCC[C@@H]1C(=O)N[C@@H](C)C(=O)N[C@@H](Cc1ccc(O)cc1)C(=O)N[C@@H](Cc1c[nH]cn1)C(=O)N[C@@H](C)C(=O)N2
B7: cyclo(-Tyr-His-Lys-Cys-Trp-Gly-^DPro-Trp-Thr-Ile-Cys-Tyr-Glu-Lys-^DPro-Lys-) (peptide)
peptide: cyclo(YHKCWG[dP]WTICYEK[dP]K)
modifications: disulfide 4-11
SMILES: CC[C@H](C)[C@@H]1NC(=O)[C@H]([C@@H](C)O)NC(=O)[C@H](Cc2c[nH]c3ccccc23)NC(=O)[C@H]2CCCN2C(=O)CNC(=O)[C@H](Cc2c[nH]c3ccccc23)NC(=O)[C@@H]2CSSC[C@H](NC1=O)C(=O)N[C@@H](Cc1ccc(O)cc1)C(=O)N[C@@H](CCC(=O)O)C(=O)N[C@@H](CCCCN)C(=O)N1CCC[C@@H]1C(=O)N[C@@H](CCCCN)C(=O)N[C@@H](Cc1ccc(O)cc1)C(=O)N[C@@H](Cc1c[nH]cn1)C(=O)N[C@@H](CCCCN)C(=O)N2
B8: cyclo(-Tyr-His-Ala-Cys-His-Gly-^DPro-Trp-Thr-Ile-Cys-Tyr-Gln-Lys-^DPro-Trp-) (peptide)
peptide: cyclo(YHACHG[dP]WTICYQK[dP]W)
modifications: disulfide 4-11
SMILES: CC[C@H](C)[C@@H]1NC(=O)[C@H]([C@@H](C)O)NC(=O)[C@H](Cc2c[nH]c3ccccc23)NC(=O)[C@H]2CCCN2C(=O)CNC(=O)[C@H](Cc2c[nH]cn2)NC(=O)[C@@H]2CSSC[C@H](NC1=O)C(=O)N[C@@H](Cc1ccc(O)cc1)C(=O)N[C@@H](CCC(N)=O)C(=O)N[C@@H](CCCCN)C(=O)N1CCC[C@@H]1C(=O)N[C@@H](Cc1c[nH]c3ccccc13)C(=O)N[C@@H](Cc1ccc(O)cc1)C(=O)N[C@@H](Cc1c[nH]cn1)C(=O)N[C@@H](C)C(=O)N2
B9: cyclo(-Tyr-His-Ile-Cys-His-Gly-^DPro-Trp-Thr-Ile-Cys-Tyr-Glu-Lys-^DPro-Pro-) (peptide)
peptide: cyclo(YHICHG[dP]WTICYEK[dP]P)
modifications: disulfide 4-11
SMILES: CC[C@H](C)[C@@H]1NC(=O)[C@H](Cc2c[nH]cn2)NC(=O)[C@H](Cc2ccc(O)cc2)NC(=O)[C@@H]2CCCN2C(=O)[C@H]2CCCN2C(=O)[C@H](CCCCN)NC(=O)[C@H](CCC(=O)O)NC(=O)[C@H](Cc2ccc(O)cc2)NC(=O)[C@@H]2CSSC[C@H](NC1=O)C(=O)N[C@@H](Cc1c[nH]cn1)C(=O)NCC(=O)N1CCC[C@@H]1C(=O)N[C@@H](Cc1c[nH]c3ccccc13)C(=O)N[C@@H]([C@@H](C)O)C(=O)N[C@@H]([C@@H](C)CC)C(=O)N2
B10: cyclo(-Tyr-His-Lys-Cys-His-Gly-^DPro-Trp-Thr-Leu-Cys-Tyr-Glu-Lys-^DPro-Pro-) (peptide)
peptide: cyclo(YHKCHG[dP]WTLCYEK[dP]P)
modifications: disulfide 4-11
SMILES: CC(C)C[C@@H]1NC(=O)[C@H]([C@@H](C)O)NC(=O)[C@H](Cc2c[nH]c3ccccc23)NC(=O)[C@H]2CCCN2C(=O)CNC(=O)[C@H](Cc2c[nH]cn2)NC(=O)[C@@H]2CSSC[C@H](NC1=O)C(=O)N[C@@H](Cc1ccc(O)cc1)C(=O)N[C@@H](CCC(=O)O)C(=O)N[C@@H](CCCCN)C(=O)N1CCC[C@@H]1C(=O)N1CCC[C@H]1C(=O)N[C@@H](Cc1ccc(O)cc1)C(=O)N[C@@H](Cc1c[nH]cn1)C(=O)N[C@@H](CCCCN)C(=O)N2
B11: cyclo(-Tyr-His-Lys-Cys-His-Gly-^DPro-Trp-Thr-Val-Cys-Tyr-Glu-Lys-^DPro-Pro-) (peptide)
peptide: cyclo(YHKCHG[dP]WTVCYEK[dP]P)
modifications: disulfide 4-11
SMILES: CC(C)[C@@H]1NC(=O)[C@H]([C@@H](C)O)NC(=O)[C@H](Cc2c[nH]c3ccccc23)NC(=O)[C@H]2CCCN2C(=O)CNC(=O)[C@H](Cc2c[nH]cn2)NC(=O)[C@@H]2CSSC[C@H](NC1=O)C(=O)N[C@@H](Cc1ccc(O)cc1)C(=O)N[C@@H](CCC(=O)O)C(=O)N[C@@H](CCCCN)C(=O)N1CCC[C@@H]1C(=O)N1CCC[C@H]1C(=O)N[C@@H](Cc1ccc(O)cc1)C(=O)N[C@@H](Cc1c[nH]cn1)C(=O)N[C@@H](CCCCN)C(=O)N2

Molecular target: T1, Formyl-Peptide Receptor 1
Assay: cell-based or functional assay

| Binder | β-Arrestin IC50 [nM] |
| --- | --- |
| B1 | 138 |
| B2 | 82 |
| B3 | 114 |
| B4 | 109 |
| cyclo(YHKCHG[d(cisHyp)]WTICYEK[dP]P) (disulfide 4-11) [cyclo(-Tyr-His-Lys-Cys-His-Gly-^DPro((4R)OH)-Trp-Thr-Ile-Cys-Tyr-Glu-Lys-^DPro-Pro-)] | 485 |
| cyclo(YHKCHG[dP]WTICYEK[dP][Tic]) (disulfide 4-11) [cyclo(-Tyr-His-Lys-Cys-His-Gly-^DPro-Trp-Thr-Ile-Cys-Tyr-Glu-Lys-^DPro-Tic-)] | 115 |
| B5 | 189 |
| B6 | 188 |
| cyclo(YHKC[Trp(5-OH)]G[dP]WTICYEK[dP]P) (disulfide 4-11) [cyclo(-Tyr-His-Lys-Cys-Trp(5OH)-Gly-^DPro-Trp-Thr-Ile-Cys-Tyr-Glu-Lys-^DPro-Pro-)] | 13 |
| B7 | 54 |
| cyclo(YHKCHG[dP]WTICYEK[dP][Pip]) (disulfide 4-11) [cyclo(-Tyr-His-Lys-Cys-His-Gly-^DPro-Trp-Thr-Ile-Cys-Tyr-Glu-Lys-^DPro-Pip-)] | 161 |
| cyclo(YHKCHG[dP]WTICYEK[dP][Hyp]) (disulfide 4-11) [cyclo(-Tyr-His-Lys-Cys-His-Gly-^DPro-Trp-Thr-Ile-Cys-Tyr-Glu-Lys-^DPro-Pro((4R)OH)-)] | 376 |
| B8 | 147 |
| cyclo(YHKCHG[dP]WTICYEK[dP][Pro(4S-NH2)]) (disulfide 4-11) [cyclo(-Tyr-His-Lys-Cys-His-Gly-^DPro-Trp-Thr-Ile-Cys-Tyr-Glu-Lys-^DPro-Pro((4S)NH2)-)] | 530 |
| B9 | 50 |
| cyclo(YH[Dab]CHG[dP]WTICYEK[dP]P) (disulfide 4-11) [cyclo(-Tyr-His-Dab-Cys-His-Gly-^DPro-Trp-Thr-Ile-Cys-Tyr-Glu-Lys-^DPro-Pro-)] | 290 |
| B10 | 153 |
| B11 | 232 |
| cyclo(YH[Dap]CHG[dP]WTICYEK[dP]P) (disulfide 4-11) [cyclo(-Tyr-His-Dap-Cys-His-Gly-^DPro-Trp-Thr-Ile-Cys-Tyr-Glu-Lys-^DPro-Pro-)] | 271 |
| cyclo(YH[Dab]CWG[dP]WTICYEK[dP]P) (disulfide 4-11) [cyclo(-Tyr-His-Dab-Cys-Trp-Gly-^DPro-Trp-Thr-Ile-Cys-Tyr-Glu-Lys-^DPro-Pro-)] | 93 |
